The source of these data is patent publication US20150037333A1.

For the assay, the target named is canine TNF-alpha (canine) (UniProt P51742). The assay can be described thus: cell-based or functional assay.
Sequence of canine TNF-alpha (canine) (P51742 77-233 limits assumed): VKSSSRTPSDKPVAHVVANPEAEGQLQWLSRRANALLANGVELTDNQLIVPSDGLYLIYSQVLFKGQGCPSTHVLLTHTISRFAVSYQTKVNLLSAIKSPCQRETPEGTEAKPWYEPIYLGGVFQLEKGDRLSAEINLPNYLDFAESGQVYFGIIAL

Take “human TNFR-canine HCB control fusion protein (human TNFR extracellular domain fused N-terminally to canine HCB hinge-CH2-CH3) (Fc fusion)”: the inhibition of canine TNF-alpha bioactivity (1 ng/ml) in 293-HEK cells with NF-kB-EGFP reporter construct pTRH1; IC50 was 1 ng/ml.
